The chains are these.
B1: 1066 (protein, listed as Caulobacter segnis)
chain: MQIDRRRVMLLGGAGSLVVAQGEAAPLGAAAISDCRVCGLETPLALGAATPRFSWRLSGPRPQAAYRITVARSAADLSAPRDLVWDSGKVASGQSFDIAFGGPAAAPRQVFWWRVEAWDDKGARAVGRPARWETGLLSASDWNAAWLAAEDATAKADRLAGVHWISGPESITDKTSKRCYRTSFEVPAQSDGTLFLAASGLAGVFLNGQELAAGEEEPTRFTTMSPYPLALRQGRNVIAIAQTPSRDLGGPQPMLCALIRLGGSERRLSTAEGWKTTVNAPEGWTLPDFDDGAWPAATTARNRPRGQPLPPGAATHLRRAFRLDKPVAQARLYATALGAYEAWINGAPADERKMAPEPTNLLERVLYQAYDVTAALRAGDNVLGLWVGDGWYASEFSANARFCFGPAPCRAMAQLEILFIDGSRQVIATDDQWRIAPSAILTSEIYDGEVYDARQEIKDWALPGTPQGGWRPAETVEAPNLPIDPQVSPPIRVTQRLKPKAVTSPKPGVHVFDFGQNFAGWAELAISGKAGTRIELLFGEYLKPDGQVDQANLRTAFARDTYVLKGQGREVWSPRFTYHGFRYVEVRGLANAPAADLLTGLVGHNDIRVSGVLRVGAPVVEQFWRNSVWSQRSNFFGLPTDCPQRDERLGWLGDAAVFWPAAAYNMDVEAFTRRFMGDVRRAQRPDGQFPDCIPPFMVPSSRSAPGWSDAGVILPYTAWRQYGDTGVIAENWEAMERYLAFILAKNPDYLWKSSKGNDYGDWLAVDAKYLGEATTPKDLIGTAFWAADAAMMRDMAKAIGKAEAAERYRALFEAIRAAFAGAYVQADGKIGNGSQTSYILAIRFGLLSPEQASEAGRRLAADIAARGGKLSTGFLGTPHILDALADTGHEATAVGLLLQRDYPSWGYMVTKGATTMWERWNSDTGDLSMNSYNHYAFGAIGDFLFRRIAGLAAVEPGFAKVVIAPIFDRRLGSAGADYDSVSGRLSSNWRYEGDTVRLDLSIPPGVQAEVVIPTAARAVRVDGRPVPSARFRVERGQHRVVFTA
B2: 1018 (protein)
chain: MFELDRRALLLGLPVTSGALADGASQTSRWRAVGLRTAMRRQPLGIDDPQPMLSWRLEGPAGAVQSAYQIMVASTAEKLHAGVADLWDSGRVKSSESVGVRYGGAPLKPRQRCVWRVRAWDAAGRASDWSPPATWEMGLIDQSEWIGDWLAVEAADERDDRVAGVRWVETQTPKPHETCRFRLSFRSGGGEGRLAIMAEGKLSKLVLDGRSIELPWRDPNGYGDPPALGLPLQLEAGAHELIAEVTSTGPGEGPGRAALGAQVRVLAADGAARRIVDGWETEAAGAWTPAVVRTAQPHFPWPPTPARLLRRTFTLSKPPTQARLYVSALGGYRIWLNGRRVGDDELQTEPAAYRRHVPYRAYDVTDLLRDGENVVGLIVGDGTFASYQAPDGRYAYGPGPRRVRLFLESRDSGDRVERVATDGEWRHALSPVLMSEIYAGEDHDLRLWPRGWAEPGFDDSGWSRVWTAPPPEGAPCALLSEPIRETRVLKAASIRAVGPGRHIVDFGQNFAGRVRLRVKGAKGAPVIVRHAEILDGQGALDRRNLRVARAEDRYILNGDDAPETLQPSFTYQGFRYAEIEGVAGLDRDMIDGVVLSSDLPEIGVFRTAEPLVQNLWLNSLWSQRSNFMGIPTDCPQRDERLGWTGDAQVFWETAAFNMDVGGFTRGFARTLRDDQAPNGAYPMWSPSPRGLGWGTTTPTPGWADGGVMLPYVAYLHSGDRSIVDENWTAMSAYVSGVLAENPDGLWRRGRGADFGDWLALDGKWPGDETTPKDLIATAMLARSVDQLAQMAAWTGRSAEAKTWRGQADRIKAAFASAFVRADGTVGNGSHTGYILALRLGLAPQPLRKAAGEHLAADIRRRGTLLSTGFLGTPLALDALADHGHAGLAFDLLLRTEYPSWGYMVRRGATTTWERWNGDTGDVSMNSFNHYALGAICGFLYRRVAGVEPITPGFGAFRVAPLIDPRLRSAGATVDSVRGRIETDWRVTGDKAVLKVRVPANSRAEVVLPTLTRSLGAGDHTLSVPLAK
modifications: Caulobacter vibrioides
B3: 1082 (protein, listed as Streptomyces avermitilis)
chain: MSALRVTSPSVEYVQRPLGLDAAHPRLSWPMASAAPGRRQSAYQVRVASSAAGLSHPDVWDSGKVVSDDSVLVPYAGPPLKPRTRYFWSVRVWDADGGASEWSAPSWWETGLMGASQWSAKWISAPAPLTEAPSLEGSSWIWFPEGEPANSAPAATRWFRRTVDLPDDITGATLAISADNVYAVSVDGAEVARTDLEADNEGWRRPAVIDVLDHVHSGNNTLAVSASNASVGPAGWICVLVLTTASGEKKIFSDASWKSTDHEPADGWREPDFDDSGWPAAKVAAAWGAGPWGRVAPVASAANQLRHEFRLPHKKVSRARLYATALGLYEAHLNGRRVGRDQLAPGWTDYRKRVQYQTYDVTSSVRPGANALAAYVAPGWYAGNVGMFGPHQYGERPALLAQLEVEYADGTSERITSGPDWRAASGPIVSADLLSGETYDARKETAGWTSPGFDDRAWLAVRGADNDVPEQIVAQVDGPVRIAKELPARKVTEPKPGVFVLDLGQNMVGSVRLRVSGDAGTTVRLRHAEVLNPDGTIYTANLRSAAATDTYTLKGQGEETYEPRFTFHGFRYVEVTGFPGKPSTTSVTGRVMHTSAPFTFEFETNVPMLNKLHSNITWGQRGNFLSVPTDTPARDERLGWTGDINVFAPTAAYTMESARFLTKWLVDLRDAQTSDGAFTDVAPAVGNLGNGVAGWGDAGVTVPWALYQAYGDRQVLADALPSVHAWLRYLEKHSDGLLRPADGYGDWLNVSDETPKDVIATAYFAHSADLAARMATELGKDAAPYTDLFTRIRKAFQTAYVASDGKVKGDTQSAYVLTLSMNLVPDALRKAAADRLVALIEAKDWHLSTGFLGTPRLLPVLTDTGHTDVAYRLLHQRTFPSWGYPIDKGSTTMWERWDSIQPDGGFQTPEMNSFNHYAYGSVGEWMYANIAGIAPGRAGYRQVVIRPRPGGEVTSARATFASLHGPVSTRWQQRSGGFVLTCSVPPNTTAEVWIPADHPDRVQHTHGTFVRAEDGCAVFEVGSGSHRFTV
B4: 1053 (protein, listed as Solibacter usitatus)
chain: MKRAALLILLAGTLFGAASVRPQQLRCEYRVNPQGIDVKDPRLSWILAPVNPKGRGLTQSAYRILVSSSEAALRGNSGDLWDSGKIVSAESTQVAYQGKPLNSGTAAFWKVQVWDQDGQPSDWSAPAQWSMGLLRAEDWKGRWIGRDEAGVYKDSASDYQLLERARWIWDAGNAQAGAPVGNRFFRAAFTVPAGRKVTRALSVIGADNTADVYLNGEPIAVESKLPLPHAVDITHLVRPGENVIAVRATHSRADRPAGLIGGVRVEFASGDPVLLQTSNQWRTVAKPDPGWENPGFLDAAWQASKDLGAFGMAPWEGVGFLAQHRLPGRLLRKEFALEKKLRRATVYYSGLGLSELYLNGAKVGDHVLSPGLTDYDKHVLYVTFDVTRQLVQGKNAIGLMLGNGRYYAPRNDVPIKTRDFGYPKALVQLDLEFEDGSRANVVSDETWKYSADGPIRANNEYDGEEYDARREIAGWNKAGFDDAGWEAAKIVGASSGAVVAQMAEPLRVTETVKPLGVKKLRPGVFVFDMGQNLVGWCRLRVTGPKGTQVKLRHSETLKDDGSLYVDNLRSAKAEDIYTLKGVGAEVYEPRFTYHGFRYVEVTGFPGEPSASALDARVVHDDMERAGEFTSSSGLLNKIHHNMFWGIRGNYRSIPTDCPQRDERQGWLGDRGQVSRSESYMFDVAGFYSKWMTDLEDSQRPSGSIPDVSPNYWPLYNDDLTWPGTIIFIHGMLYDQYGDKRVLARGYPAMKKWMDYEKTFVKDGLISKDQYADWCVPPEDPKLIHSQDPRRVTDKTLIATSYYYQFLRTMSRYARILDRPTDAADFDKQADQVQDTFQRRFFKLESGMYDNGTQTSSILPLYFGMIPADFRPAVVQTLVRNIELQSNGHVGTGLVGAQWLMRTLSDAGYADLAYKIATQKTYPGWGYMVEQGATTIWELWNGNTADPAMNSGNHVMQIGDLAVWMYEYLAGIRTDPEKPGFRHAVIRPYPAGDLSFVKATHKTMYGPLASSWKREKGEFMLDVTVPANTTATVWVPAKDAASVTESGKKATDVKGVKFVRSENGSAIFEVSSGAYSFKSGI

The nature of one assay: Experiment 6-1: screening of rhamnosidases for derhamnosylation of saponins in treated bark extract (2%), desglucosyl-QS-17 2134 to QS-21 1988 (PAR %). Type of assay: biochemical, Quillaja saponaria. The following applies: TBE 2%, pH 7.5, 30 degC, 18 h; TIC peak area ratio percent, LCMS/MS; negative controls 2.719, 2.158.
On to B1, for which the “Peak75 (PAR %)” value is 1.220%.

With B2, the “Peak75 (PAR %)” value came out at 2.651%.

In the case of B3, the “Peak75 (PAR %)” value is 1.614%.

Regarding B4, the “Peak75 (PAR %)” value is on record as 0.944%.

A short description of another assay: Experiment 6-1: screening of rhamnosidases for derhamnosylation of saponins in treated bark extract (2%), QS-17 2310 to QS-18 2164 (PAR %). Type of assay: biochemical, Quillaja saponaria. The settings on record: TBE 2%, pH 7.5, 30 degC, 18 h; TIC peak area ratio percent, LCMS/MS; negative controls 3.061, 2.429.
Regarding B1, the “Peak57 (PAR %)” value amounted to 0.896%.

On to B2, for which the “Peak57 (PAR %)” value is 0.547%.

As to B3, the “Peak57 (PAR %)” value was 0.000%.

For B4, the “Peak57 (PAR %)” value is 0.550%.

A short description of another assay: Experiment 6-1: specificity of rhamnosidases towards other rhamnose residues (C3 saccharide rhamnose, C28 saccharide rhamnose). Type of assay: biochemical, Quillaja saponaria. The settings on record: TBE 2%, pH 7.5, 30 degC, 18 h; LCMS/MS; negative controls 0.18, 0.17.
With B1, the “ratio PP/QS-21” value came out at 0.18.

Turning to B2, the “ratio PP/QS-21” value came out at 0.17.

On to B3, for which the “ratio PP/QS-21” value worked out at 0.21.

Regarding B4, the “ratio PP/QS-21” value amounted to 0.18.

A short description of the next assay: Experiment 6-3: screening of rhamnosidases for derhamnosylation of saponins in crude bark extract (80%), relative % of Left, Middle and Right Peak by UV HPLC. Type of assay: biochemical, Quillaja saponaria. The following applies: CBE 80%, pH 7.4, 30 degC, 19.5 h, mainly QS-17 family, negative control 27%. The method, boiled down:
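Clarified lysates of expressed rhamnosidase variants were incubated with crude bark extract (pH 7.4, final 80%) at 30 degC with shaking for 19.5 h, then quenched with MeCN+2% AcOH. UV HPLC gave relative % of Left (QS-17), Middle (QS-18/desglucosyl-QS-17) and Right (QS-21) peaks.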
For B1, the “Left Peak” value came out at 26%.

Take B2: the “Left Peak” value is 26%.

Consider B3, for which the “Left Peak” value is on record as 26%.

Consider B4, for which the “Left Peak” value was 26%.

The assay is the same for the next values; noted with them: CBE 80%, pH 7.4, 30 degC, 19.5 h, mainly QS-18 and desglucosyl-QS-17 family, negative control 48%.
As for B1, the “Middle Peak” value is 48%.

On to B2, for which the “Middle Peak” value is reported as 48%.

With B3, the “Middle Peak” value is 47%.

B4: the “Middle Peak” value stood at 48%.

Staying with this assay, now noted: CBE 80%, pH 7.4, 30 degC, 19.5 h, mainly QS-21 family, negative control 26%.
Take B1: the “Right Peak” value is listed as 27%.

On to B2, for which the “Right Peak” value was determined as 26%.

For B3, the “Right Peak” value is 27%.

For the molecule B4, the “Right Peak” value was 26%.

A further assay can be described thus: Experiment 6-2: screening of rhamnosidases for derhamnosylation of saponins in treated bark extract (25%), relative % of Left, Middle and Right Peak by UV HPLC. Type of assay: biochemical, Quillaja saponaria. The following applies: TBE 25%, pH 7.4, 19.5 h, mainly QS-17 family, negative control 24%.
For the molecule B1, the “Left Peak” value was 20%.

For B2, the “Left Peak” value stood at 22%.

As to B3, the “Left Peak” value was determined as 19%.

In the case of B4, the “Left Peak” value is recorded as 20%.

Still in this assay, the particulars now being: TBE 25%, pH 7.4, 19.5 h, mainly QS-18 and desglucosyl-QS-17 family, negative control 50%.
On to B1, for which the “Middle Peak” value is 53%.

Regarding B2, the “Middle Peak” value is 52%.

With B3, the “Middle Peak” value is given as 55%.

On to B4, for which the “Middle Peak” value was determined as 54%.

The same assay, now with this note: TBE 25%, pH 7.4, 19.5 h, mainly QS-21 family, negative control 26%.
For the molecule B1, the “Right Peak” value came to 27%.

As for B2, the “Right Peak” value is given as 26%.

In the case of B3, the “Right Peak” value was found to be 26%.

On to B4, for which the “Right Peak” value worked out at 26%.

The next assay in a line: Experiment 6-1: screening of rhamnosidases for derhamnosylation of saponins in treated bark extract (2%), QS-17 2296 to QS-18 2150 (PAR %). It counts as biochemical, Quillaja saponaria. The settings on record: TBE 2%, pH 7.5, 30 degC, 18 h; TIC peak area ratio percent of rhamnosylated starting saponin to derhamnosylated product, LCMS/MS; negative controls 4.876, 5.225.
As to B1, the “QS-17 (PAR %)” value is reported as 2.194%.

Turning to B2, the “QS-17 (PAR %)” value is 1.512%.

Turning to B3, the “QS-17 (PAR %)” value was determined as 3.122%.

For the molecule B4, the “QS-17 (PAR %)” value stood at 1.127%.

The record behind these values is US20240026407A1, “MODIFICATION OF SAPONINS” (GLAXOSMITHKLINE BIOLOGICALS SA, priority 2020, published 2024).
